A short description of the series: yeast display, Sf9 membrane polyspecificity reagent, FACS + sequencing; frameworks hold sequencing errors. In short, it runs like this: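 In a synthetic yeast display library (Saccharomyces cerevisiae BJ5465), nanobody expression was induced with galactose for 36–48 hours. FACS gates were set low and high (top ~1%) using anti-HA fluorescence for expression and streptavidin fluorescence for binding of the Sf9 membrane reagent. Each polyreactivity label is drawn from the gate of origin.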
As for “QVQLVESGGGLVQAGGSLRLSCAASGFTFRWYTMGWYRQAPGKERELVAAISWSGTSTYYADSVKGRFTISRDNAKNIVYLQMNSLKPEDTAVYYCAAADFYYTGADDYWGQGTQVTVSS”, the “polyreactivity (PSR sort gate)” value is on record as “high polyreactivity”.

As for “QVQLVESGGGLVQAGGSLRLSCAASGFTFRYNAMGWYRQAPGKEREVVAAITSGGNTNYADSVKGRFTISRDNAKNTFYLQMNSLKPEDTAVYYCNTAWRDYVARLGGVGYDYWGQGTQVTVSS”, the “polyreactivity (PSR sort gate)” value is “high polyreactivity”.

In the case of “QVQLVESGGGLVQAGGSLRLSCAASGFTFRYYAMGRSRQAPGKERELVAAITGSGVNTYYADSVKGRFTISRDNAKNTVYLQMNSLKPEDTAVYYCAAESESDPLFDRYYWGQGTQVTVSS”, the “polyreactivity (PSR sort gate)” value is recorded as “high polyreactivity”.

As to “QVQLVESGGGLVQAGGSLRLSCAASGFTFRYYAMGWSRQAAGKERELVATITGSGGSTYYADSVKGRFTISRDNAKNTVYLQMNSLKPEDTAVYYCNTVWYSDVRYTRFYYWGQGTQVTVSS”, the “polyreactivity (PSR sort gate)” value was “high polyreactivity”.

On to “QVQLVESGGGLVQAGGSLRLSCAASGFTFRYYAMGWYRPAPGKERELVAGISWSGSRTYYADSVKGRFTISRDSAKNTVYLQMNSLKPEDTAVYYCAKVNSYGPVPDRYDYWGQGTQVTVSS”, for which the “polyreactivity (PSR sort gate)” value is reported as “high polyreactivity”.

For “QVQLVESGGGLVQAGGSLRLSCAASGFTFRYYAMGWYRQAPGKEREFVAAITYNGVSTYYADSVKGRFTISRDNAKNTVYLQMNSLKPEDTAVYYCAAGWYYYARPRVYNAREYYYWGQGTQVTVSS”, the “polyreactivity (PSR sort gate)” value was “high polyreactivity”.

For the sequence “QVQLVESGGGLVQAGGSLRLSCAASGFTFRYYAMGWYRQAPGKERELVAAISAGGSTYYADSVKGRFTISRDNAKNTVYLQMNSLKQEDTAVYYCTARYQGFVITYYYWGQGTQVTVSS”, the “polyreactivity (PSR sort gate)” value was “high polyreactivity”.

For “QVQLVESGGGLVQAGGSLRLSCAASGFTFRYYAMGWYRQAPGKERELVAAITRRSGSTYYADSVKGRFTISRDNAKNTVYLQMNSLKPEDTAVYYCAARASTIMGSWGQGTQVTVSS”, the “polyreactivity (PSR sort gate)” value is reported as “high polyreactivity”.

As to “QVQLVESGGGLVQAGGSLRLSCAASGFTFRYYAMGWYRQAPGKERELVATITGYGGSTYYADSVKGRFTISRDNAKNTVYLQMNSLKPEDTAVYYCNTVWYTDVRYTRFYYWGQGTQVTVSS”, the “polyreactivity (PSR sort gate)” value is given as “high polyreactivity”.

As for “QVQLVESGGGLVQAGGSLRLSCAASGFTFRYYAMGWYRQEPGKERELVARISSGGSTNYADSVKGRFTISRDNAKNTVYLQMNSLKPEDTSVKYCAARLDHWLIYAYDYWGQGTQVTVSS”, the “polyreactivity (PSR sort gate)” value is “high polyreactivity”.

Regarding “QVQLVESGGGLVQAGGSLRLSCAASGFTFRYYTMGWYRQAPGKERELVAAITSSGGNTYYADSVKGRFTISRDNAKYTVYLQMNSLKPEDTAVYYCAADGRYYAVFRYDYWGQGTQVTVSS”, the “polyreactivity (PSR sort gate)” value was “low polyreactivity”.

“QVQLVESGGGLVQAGGSLRLSCAASGFTFSAYAMGWYRPAPGKERELVAAISWSGSRTYYADSVKGRFTISRDNAKNTVYLQMNSLKQEDTEVYYCAKEPYDTFGFYEYDYWGQGTQVTVSS”: the “polyreactivity (PSR sort gate)” value is reported as “low polyreactivity”.

As to “QVQLVESGGGLVQAGGSLRLSCAASGFTFSAYDMGWYRQAPGKERELVAAISWSGGRTYYADSVKGRFTISRDNAKNTVYLQMNSLKPEDTAVYYCNAASLRYSYTLFDSWGQGTQVTVSS”, the “polyreactivity (PSR sort gate)” value was “high polyreactivity”.

With “QVQLVESGGGLVQAGGSLRLSCAASGFTFSAYTMGWYRQAPGKERELVAAINWSGANTYYADSVKGRFTISRDNAKNTVYLQMNSLKPEDTAVYYCNAEDDYTYDLSFGGYKYDYWGQGTQVTVSS”, the “polyreactivity (PSR sort gate)” value was “low polyreactivity”.

Turning to “QVQLVESGGGLVQAGGSLRLSCAASGFTFSDYAMGWYRQAPGKERELVAAISTRGSSTYYADSVKGRFTISRDNAKNTVYLQMNSLKPEDTAVYYCNAVGSYSGYYYWGQGTQVTVSS”, the “polyreactivity (PSR sort gate)” value was “high polyreactivity”.

Turning to “QVQLVESGGGLVQAGGSLRLSCAASGFTFSENTMGWYRQAPGKERELVADIDSGGSTYYADSVKGRFTISRDNAKNTVYLQMKRLKPEDTAVYYCAKDYHVVGGPTFLFEYDYWGQGSQVTVSS”, the “polyreactivity (PSR sort gate)” value is recorded as “low polyreactivity”.

Regarding “QVQLVESGGGLVQAGGSLRLSCAASGFTFSFYAMGWYRQAPGKERELVAGISKRGGSTYYADSVKGRFTISRDNAKNTVYFLMNSLNPEDTAVYYCAARWYARSLTRFNYWGQGTQVTVSS”, the “polyreactivity (PSR sort gate)” value is recorded as “high polyreactivity”.

For the sequence “QVQLVESGGGLVQAGGSLRLSCAASGFTFSFYAMGWYRQAPGKERELVAVISRSGGGTYYADSVKGRFTISRDNAKHTVYLQMNSLKPEDTAVYYCAARLGNRRYDYWGQGTQVTVSS”, the “polyreactivity (PSR sort gate)” value is listed as “high polyreactivity”.

“QVQLVESGGGLVQAGGSLRLSCAASGFTFSFYSMGWSRQAPGKERELVAAITSRGTSTYYADSVKGRFTISRDNAKNTVYLQMNSLKPEDTAVYYCAKLLPRGQWPYDYWGQGTQVTVSS”: the “polyreactivity (PSR sort gate)” value is “high polyreactivity”.

Consider “QVQLVESGGGLVQAGGSLRLSCAASGFTFSGNAMGWYRQAPGKERELVAAITTTGVRTYYADSVKGRFTISRDNAKNTVYLQMNSLKPEDTAVYYCNKKRTQRVPVRYDYWGQGTQVTVSS”, for which the “polyreactivity (PSR sort gate)” value is given as “high polyreactivity”.

“QVQLVESGGGLVQAGGSLRLSCAASGFTFSGYAMGWYRQAPGKERELVAVIRGRGGRTYYADSVKGRFTISRDNAKNTVYLQMNSLKPEDTAVYYCAARRDAYYYVPNRFDYWGQGTQVTVSS”: the “polyreactivity (PSR sort gate)” value is “high polyreactivity”.

Turning to “QVQLVESGGGLVQAGGSLRLSCAASGFTFSLYAMGWYRQAPGKDRELVASISRSGGSTYYADSVKGRFTISRDNAKYTVYIQMYSLKPEDTAVYYCAARWRPYKYDSWGQGTQVTVSS”, the “polyreactivity (PSR sort gate)” value was “high polyreactivity”.

Take “QVQLVESGGGLVQAGGSLRLSCAASGFTFSLYAMGWYRQAPGKERELVASISSRGGSTYYADSVKGRFTISRDNAKNTVYLQMNSLKPEDTAVYYCNAGSVTRAWWGYWPFNYWGQGTQVTVSS”: the “polyreactivity (PSR sort gate)” value is recorded as “low polyreactivity”.

As for “QVQLVESGGGLVQAGGSLRLSCAASGFTFSNNVMGWYRQAPGKERELVADITDSGGDTYYADSVKGRFTISRDNAKNTVYLQMNSLKPEDTAVYYCAARPQHFDLDLAYSGFDYWGQGTQVTVSS”, the “polyreactivity (PSR sort gate)” value is reported as “high polyreactivity”.

Turning to “QVQLVESGGGLVQAGGSLRLSCAASGFTFSNYAMGWYRQAPGKEREFVAAISGTGGSTYYADSVKGRFTISRDNAKNTVYLQMNSLKPEDTAVYYCNARERVSRQYTFDYWGQGTQVTVSS”, the “polyreactivity (PSR sort gate)” value was “high polyreactivity”.

For “QVQLVESGGGLVQAGGSLRLSCAASGFTFSPNAMGWYRQAPGKERELVAAISKRGASTYYADSVKGRFTISRDNAKNTVYLQMNSLKPEDTAVYYCNVGASARKPYDYWGQGTQVTVSS”, the “polyreactivity (PSR sort gate)” value is on record as “high polyreactivity”.

As for “QVQLVESGGGLVQAGGSLRLSCAASGFTFSPYTMGSYRQAPGKERELVAGITSRGGSTYYADSVKGRFTISRDTAKNTVYLQMNILKPEDSAVYYCAARSPGYYRIVWYDYWGQGTQVTVSS”, the “polyreactivity (PSR sort gate)” value is recorded as “high polyreactivity”.

Turning to “QVQLVESGGGLVQAGGSLRLSCAASGFTFSRNDMGWYRQAPGKERELVASITTSGGGTYYADSVKGRFTISRDKAKNTVYLQMNSLKPEDTAVYYCAAEYYSIRYGPHSIEVYGMDYWGQGTQVTVSS”, the “polyreactivity (PSR sort gate)” value is on record as “low polyreactivity”.

For “QVQLVESGGGLVQAGGSLRLSCAASGFTFSRNGMGWYRLAPGKERELVADITLSGASTYYADSVKGRFTISRDNAKNTVYLQMKSLKPEDTAVYYCAADPYHWRWGWRHDYWGQGTQVTVSS”, the “polyreactivity (PSR sort gate)” value is reported as “low polyreactivity”.

For “QVQLVESGGGLVQAGGSLRLSCAASGFTFSRNTMGWYRQAPGKERELVAAITWRGGSTYYADSVKGRFTISRDNAKNTVYLQMNSLKPEDTAVYYCAASSPNLEFDYWGQGTQVTVSS”, the “polyreactivity (PSR sort gate)” value is “high polyreactivity”.

Regarding “QVQLVESGGGLVQAGGSLRLSCAASGFTFSRYAMAWYRQAPGKERELVAAITWSGGRTYYADSVKGRFTISRDNAKNTVYLQMNSLKPEATAVYYCAAVYHVWKYHYDYWGQGTQVTVSS”, the “polyreactivity (PSR sort gate)” value is recorded as “high polyreactivity”.

For “QVQLVESGGGLVQAGGSLRLSCAASGFTFSRYAMGWYRPAPGKERELVAAISTRGGRTYYADSVKGRFTISRDNAKNTVYLQMNSLKPEDTAVYYCAADATVGSSDYWGQGTQVTVSS”, the “polyreactivity (PSR sort gate)” value was “high polyreactivity”.

For “QVQLVESGGGLVQAGGSLRLSCAASGFTFSRYAMGWYRQAPGKERELVAAISYSGGRTYYADSVKGRFTISRDNAKNTVYLQMKSLKPEDTAVYYCNAFFTSSGWRLGYDYWGQGTQVTVSS”, the “polyreactivity (PSR sort gate)” value is “high polyreactivity”.

As for “QVQLVESGGGLVQAGGSLRLSCAASGFTFSRYAMGWYRQAPGKERELVAAITRRGGRTYYADSVKGRFTISRDNAKNTVFLQMNSLKPEDTAVYYCITDAYRLGYDYWGQGTQVTVSS”, the “polyreactivity (PSR sort gate)” value is listed as “high polyreactivity”.

As to “QVQLVESGGGLVQAGGSLRLSCAASGFTFSRYAMGWYRQAPGKEREYVAAISWSGGSTYYADSVKGRFTISRDNAKNTVYLQMNSLKPEDTAVYNCNAGAQLLASQTRYDYWGQGTQVTVSS”, the “polyreactivity (PSR sort gate)” value is on record as “low polyreactivity”.

Regarding “QVQLVESGGGLVQAGGSLRLSCAASGFTFSRYAMGWYRQAPGTERELVAAITSRGGSTYYADSVKGRFTISRDNAKNTVYLQMNSLKPEDTAVYYCAASGRNRKDGLYEYYYWGQGTQVTVSS”, the “polyreactivity (PSR sort gate)” value is listed as “high polyreactivity”.

Take “QVQLVESGGGLVQAGGSLRLSCAASGFTFSSNAMGWYRQAPGKERELVADINWSGGRTYYADSVKGRFTISRDNAKYTVYLQMNSLKPEDTAVYYCAAVLSWRQYYREYDYWGQGTQVTVSS”: the “polyreactivity (PSR sort gate)” value is “high polyreactivity”.

In the case of “QVQLVESGGGLVQAGGSLRLSCAASGFTFSSYAMGWYRQAPGKERELVAAISSSGSRTYYADSVKGRFTISRDNAKNTVYLQMNSLKPEDTAVYYCAARPGDGGYYYWGQGTQVTVSS”, the “polyreactivity (PSR sort gate)” value is reported as “high polyreactivity”.

With “QVQLVESGGGLVQAGGSLRLSCAASGFTFSSYDMGWYRQAPGKERELVAAISRSGGSTYYADSVKGRFTISRDNAKNTVYLQMNCLKPEDTAVYYARAKYSRVTLYQGYGYWGQGTQVTVSS”, the “polyreactivity (PSR sort gate)” value is “high polyreactivity”.

For the sequence “QVQLVESGGGLVQAGGSLRLSCAASGFTFSTNAMGWYRQAPGKERELVAAISKSGVSTYYADSVKGRFTISRDNAKNTVYLQMNSLKPEDTAVYYCAADPKIALYKVWRYDYWGQGTQVTVSS”, the “polyreactivity (PSR sort gate)” value is “high polyreactivity”.

The values are drawn from the nanobody polyreactivity screen of Harvey et al. (2022).
